According to patent publication US20230357735, “PROGRAMMABLE NUCLEASES AND METHODS OF USE” (Mammoth Biosciences, Inc., published 2023):

T1: CasΦ.12 (in cells) (Unknown)
T1 chain: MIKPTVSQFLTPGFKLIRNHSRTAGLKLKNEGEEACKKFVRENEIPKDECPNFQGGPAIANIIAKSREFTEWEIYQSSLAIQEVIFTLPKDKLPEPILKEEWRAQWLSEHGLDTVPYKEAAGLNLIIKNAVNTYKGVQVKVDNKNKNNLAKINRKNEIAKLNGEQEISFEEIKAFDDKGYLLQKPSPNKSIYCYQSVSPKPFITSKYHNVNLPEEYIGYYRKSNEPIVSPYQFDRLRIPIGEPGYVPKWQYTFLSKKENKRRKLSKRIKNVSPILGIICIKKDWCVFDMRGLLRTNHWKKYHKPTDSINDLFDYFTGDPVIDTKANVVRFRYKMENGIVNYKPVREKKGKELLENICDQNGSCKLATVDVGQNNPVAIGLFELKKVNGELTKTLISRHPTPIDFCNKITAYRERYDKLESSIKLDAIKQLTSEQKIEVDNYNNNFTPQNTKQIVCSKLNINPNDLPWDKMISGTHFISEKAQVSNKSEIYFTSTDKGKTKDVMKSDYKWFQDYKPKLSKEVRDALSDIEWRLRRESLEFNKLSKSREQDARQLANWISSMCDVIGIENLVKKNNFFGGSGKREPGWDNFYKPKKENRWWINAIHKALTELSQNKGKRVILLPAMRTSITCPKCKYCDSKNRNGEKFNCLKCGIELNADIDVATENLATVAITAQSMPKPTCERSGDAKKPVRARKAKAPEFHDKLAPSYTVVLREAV


Target: T1, CasΦ.12 (in cells)
Experiment: cell_activity; T cells, RNP nucleofection; PAM NTTN
Protocol: This example illustrates the ability of CasΦ RNP complexes to knockout multiple genes simultaneously. In this study, gRNAs targeting B2M, TRAC and PDCD1 (provided in Table 15) were incubated with CasΦ.12 (SEQ ID NO: 12) for 10 minutes at room temperature to form B2M, TRAC, and PDC1 targeting RNPs, respectively. The B2M targeting RNPs, TRAC targeting RNPs, PDCD1 targeting RNPs and combinations thereof were added to T cells. T cells were resuspended at 5×10⁵ cells/20 μL in Nucleofection P3 solution and an Amaxa 4D 96-well electroporation system with pulse code EH115 was used to nucleofect the cells. Immediately after nucleofection, 85 μl pre-warmed culture medium was added to each well. The cells were then left in the cuvette plate for 10 minutes before transfer to the culture plate. On Day 3, genomic DNA was extracted and sent for NGS sequencing and the % indel was measured with a positive % indel being indicative of % knockout. On Day 5, cells were harvested for flow cytometry and the % knockout was measured with fluorescently labeled antibodies to TRAC and B2M (antibody to PDCD1 unavailable). % indel results are presented in Table 16 and flow cytometry data presented in Table 17.

Binder	activity
TRAC gRNA R3042 ; TRAC target (ssRNA ; dsDNA) RNA: CUUUCAAGACUAAUAGAUUGCUCCUUACGAGGAGACGAGUCUCUCAGCUGGUACAC DNA 1: GAGTCTCTCAGCTGGTACAC DNA 2: GTGTACCAGCTGAGAGACTC	77.6 % indel
B2M gRNA R3132 ; B2M target (ssRNA ; dsDNA) RNA: CUUUCAAGACUAAUAGAUUGCUCCUUACGAGGAGACAGCAAGGACUGGUCUUUCUA DNA 1: AGCAAGGACTGGTCTTTCTA DNA 2: TAGAAAGACCAGTCCTTGCT	85.5 % indel
PDCD1 gRNA R2925 ; PDCD1 target (ssRNA ; dsDNA) RNA: CUUUCAAGACUAAUAGAUUGCUCCUUACGAGGAGACUAGCACCGCCCAGACGACUG DNA 1: TAGCACCGCCCAGACGACTG DNA 2: CAGTCGTCTGGGCGGTGCTA	44.6 % indel
